Here are results for two molecules from US20180044653A1, “Mutant Yeast Strain Capable of Degrading Cellobiose” (Institut National de la Recherche Agronomique, priority 2015, published 2018).

Substrate in series [1]: OC[C@H]1O[C@@H](OC[C@H]2OC(O)[C@H](O)[C@@H](O)[C@@H]2O)[C@H](O)[C@@H](O)[C@@H]1O
The experiment in a line: purified protein, by the assay type. The following applies: other: apparent; 0.13 nM Bgl2; released glucose; mean of three experiments, SD below 10%.

Substrate in series [2]: OC[C@H]1O[C@@H](O[C@H]2C(O)O[C@H](CO)[C@@H](O)[C@@H]2O)[C@H](O)[C@@H](O)[C@@H]1O
The experiment in a line: purified protein, by the assay type. The following applies: other: apparent; 0.13 nM Bgl2; released glucose; mean of three experiments, SD below 10%.

Substrate in series [3]: OC[C@H]1O[C@@H](O[C@H]2[C@H](O)[C@@H](CO)OC(O)[C@@H]2O)[C@H](O)[C@@H](O)[C@@H]1O
The experiment in a line: purified protein, by the assay type. The conditions noted are these: other: apparent; 0.13 nM Bgl2; released glucose; mean of three experiments, SD below 10%.

Substrate in series [4]: OC[C@H]1O[C@@H](O[C@H]2[C@H](O)[C@@H](O)[C@H](O[C@H]3[C@H](O)[C@@H](O)C(O)O[C@@H]3CO)O[C@@H]2CO)[C@H](O)[C@@H](O)[C@@H]1O
The experiment in a line: purified protein, by the assay type. The following applies: other: apparent; 0.13 nM Bgl2; released glucose; mean of three experiments, SD below 10%.

Substrate in series [5]: OC[C@H]1O[C@@H](O[C@H]2[C@H](O)[C@@H](O)[C@H](O[C@H]3[C@H](O)[C@@H](O)[C@H](O[C@H]4[C@H](O)[C@@H](O)C(O)O[C@@H]4CO)O[C@@H]3CO)O[C@@H]2CO)[C@H](O)[C@@H](O)[C@@H]1O
In words: purified protein, by the assay type. The conditions noted are these: other: apparent; 0.13 nM Bgl2; released glucose; mean of three experiments, SD below 10%.

Substrate in series [6]: OC[C@H]1O[C@@H](O[C@H]2[C@H](O)[C@@H](O)[C@H](O[C@H]3[C@H](O)[C@@H](O)[C@H](O[C@H]4[C@H](O)[C@@H](O)[C@H](O[C@H]5[C@H](O)[C@@H](O)[C@H](O[C@H]6[C@H](O)[C@@H](O)C(O)O[C@@H]6CO)O[C@@H]5CO)O[C@@H]4CO)O[C@@H]3CO)O[C@@H]2CO)[C@H](O)[C@@H](O)[C@@H]1O
In words: purified protein, by the assay type. The following applies: other: apparent; 0.13 nM Bgl2; released glucose; mean of three experiments, SD below 10%.

Substrate in series [7]: CCCCCCCCO[C@@H]1O[C@H](CO)[C@@H](O)[C@H](O)[C@H]1O
The experiment in a line: Enzyme kinetics on glycoside substrates, released glucose, Michaelis-Menten (Bgl2). The class given is biochemical, Yarrowia lipolytica. The conditions noted are these: other: apparent, 0.13 nM Bgl2, mean of three experiments, SD below 10%.
Description: (§2) When using aryl-substrates, the standard assay method was employed, simply replacing pNPGlc by another substrate as appropriate. For oligosaccharides, the release of glucose was quantified using an enzyme kit (D-Fructose/D-Glucose Assay Kit, liquid stable, Megazyme). […] Initial rates were fitted to the Michaelis-Menten kinetic equation using a nonlinear regression (SigmaPlot 10) to extract the apparent KM and kcat (Segel, 1993).

Substrate in series [8]: OC[C@H]1O[C@@H](O[C@H]2[C@H](O)[C@@H](O)C(O)O[C@@H]2CO)[C@H](O)[C@@H](O)[C@@H]1O
The description is as above. The following applies: other: apparent, 0.13 nM Bgl2, mean of three experiments, SD below 10%. Format: biochemical, Yarrowia lipolytica.
Description: as §2

Substrate in series [9]: OC[C@H]1O[C@@H](O[C@H]2[C@H](O)[C@@H](O)[C@H](O[C@H]3[C@H](O)[C@@H](O)[C@H](O[C@H]4[C@H](O)[C@@H](O)[C@H](O[C@H]5[C@H](O)[C@@H](O)C(O)O[C@@H]5CO)O[C@@H]4CO)O[C@@H]3CO)O[C@@H]2CO)[C@H](O)[C@@H](O)[C@@H]1O
The series is described as above. The following applies: other: apparent, 0.13 nM Bgl2, mean of three experiments, SD below 10%. The class given is biochemical, Yarrowia lipolytica.
Description: as §2

The nature of series [10]: β-Glucosidase activity, release of pNP from pNPGlc. Format: biochemical. The protocol: β-Glucosidase activity was measured by quantifying the release of pNP (p-nitroplienol) from pNPGlc as described previously (Guo et al., 2011). One unit of pNPGlcase activity was defined as the amount of enzyme required to release 1 μmol pNP per min. Cellobiose phosphorylase activity was assayed by measuring the formation of Glc-1P from cellobiose as described previously (Reichenbecher et al., 1997). One unit of activity (U) was defined as the amount of enzyme required to release 1 μmol Glc-1P per min. All protein concentrations were measured using the Bradford method and bovine serum albumin as a standard (Bradford, 1976).

Series [11] is described as follows: Subcellular fractionation and enzyme localization, activity assayed with pNPGlc. The class given is biochemical, Y. lipolytica. The protocol: Fractionation of yeast cells was carried out as described by Cummings and Fowler (1996), with slight modifications. Briefly, yeasts were cultivated until a cellular density of 6×10^7 cells/mL was reached. Then, to quantify total β-glucosidase activity, a 50 mL sample was taken and subjected to centrifugation at 8,000×g for 5 min at 4° C. thus isolating a cell pellet and supernatant. The cell pellet was disrupted in Tris-HCl buffer (50 mM, pH 7.4, 3 mM EDTA and 0.5 mM PMSF) using a MP FastPrep-24 Instrument (MP Biomedicals Inc.). β-Glucosidase activity in both the cell lysate and the supernatant was determined as described earlier in order to estimate total β-glucosidase activity. Using a second 50 mL yeast culture, a cell pellet containing approximately 2×10^8 cells/mL was obtained by centrifugation and then treated with zymolyase 100T at 10 mg/mL (Seikagaku corp roger) in 15 mL of sorbitol buffer (1 M sorbitol, 50 mM Tris-HCl, pH 7.4, 2 mM dithiothreitol, 10 mM MgCl2, 20 mM-sodium azide, 0.5 mM PMSF) at 30° C. with gentle shaking. Protoplast formation was monitored using a microscope until ≧99% of the cells was lysed when. SDS was added (1% SDS w/v). The solid protoplast fraction was then separated from the supernatant by centrifugation (1000 rpm for 5 min at 4° C.) and the latter was designated as the periplasmic fraction. The protoplasts were re-suspended in Tris-HCl buffer (50 mM Tris-HCl, pH 7.4) and disrupted by vortex in the presence of glass beads (0.4-0.45 mm). The homogenate was centrifuged (20,000×g for 2 h at 4° C.) and the supernatant and solid fractions were designated as the cytoplasmic and membrane fraction respectively. Prior to enzyme assays, the membrane fraction was suspended in citrate buffer.
Activity was assayed with pNPGlc.

A short description of series [12]: Specific activity on cellobiose. Format: biochemical. The source says: (§1) When using aryl-substrates, the standard assay method was employed, simply replacing pNPGlc by another substrate as appropriate. For oligosaccharides, the release of glucose was quantified using an enzyme kit (D-Fructose/D-Glucose Assay Kit, liquid stable, Megazyme).
Series [13] can be described thus: Michaelis-Menten kinetics (glucose release). The conditions noted are these: cellobiose. Format: biochemical.
Description: as §1

B1: Yarrowia lipolytica β-glucosidase Bgl2 (YALI_BGL2, YALI0B14289g, SEQ ID NO: 6; mature SEQ ID NO: 2), native (Yarrowia lipolytica CLIB122) (protein)
chain: DPFSDKDAYKHSPPYYPAPEIGRVPTDLRWRAALKVAQGMVANMTLLEKVNITTGTGWEMGPCVGNTGTVERLGIKSLCLQDGPLGIRFADLITTFPAGITIASTFSRQLVRERGAAMGRENRRKGVDITLSPVVGPLGRHANGGRIWEGFSADPYLAGKLAAEAVTGIQGQNVMAVVKHMVGNEQEHFRQLGEWQGFGFKDLKQPLSSNIDDRTLNEAYLWPFADAVRANVGSVMCSYQQINGSQGCQNAHILNGKLKEEMGFQGFVMSDWLAQRSGVASVLAGLDMSMPGDGLVWADGVPLMGYELTRSVLNGTIDESRVDDMVTRILTPILYLSITPTDPNFSSWTNDTTSYKYYGAKAGGNVTVNRHIDVRDQYTTKAALDGANAALVLLKNEKKTLPLNPTNIGNLNIFGIGSKTGPLGAVCGENMQCSDGALIEGWGSGSVYPTDYQSPYDAIKERASKDNITIGGTTQSWGNLSNVEILSAAADASVVFVLSDSGESTGIVDGNIGDRNNLTLWHNGDEVVKAVASKNPNTIVVVTTVGPVNLEKWIDNPNVTAVLLTGPAGDFGGRAAASILFGDIAPSGKLPFTIAKNDTDYIPLTTKIPEDGLPQDYFTEGTLLDYKRFDENQVTPRFEFGYGLSYSNITVENLEARYAFPSIPEFLPTPFAPSNPNKPKNAFTPHANESVFPSDIDPLNKYVYPYLNDTSEIFSNETHYPYPEGYSSEQSNSTNINGGAVGGNPALWLSAVYIVHSVSNYGPYDTGVVTQMYIAFPQDNDDLKTAPRQLRGFERSELKVGERQGILYDVQWRDLAVWDVKLQSWRVQRGEYKVYVGHSSRDFVLTTSFTLK
As usually defined, the Km is the substrate concentration at which the rate is half of its maximum. A word on the kcat: it is the maximal rate divided by the concentration of active sites. Broadly, the kcat/Km is the second-order rate constant that governs catalysis at low substrate concentration. For B1, the Michaelis-Menten constant (Km) amounted to 1840 µM in series [1]; 2400 µM in series [2]; 890 µM in series [3]; 990 µM in series [4]; 1860 µM in series [5]; 2370 µM in series [6]. For the same molecule, the figures for the Km in [7], in series [8] and in [9] were 1300 µM, 790 µM and 2240 µM, respectively. For the same molecule, the kcat in series [1] worked out at 186.5 s⁻¹; in series [2], 41.2 s⁻¹; in [3], 211.1 s⁻¹; in series [4] it was 9.5 s⁻¹; in series [5], 20.6 s⁻¹; in series [6], 30.5 s⁻¹. Also, the figures for the kcat in series [7], in series [8] and in series [9] were 111.1 s⁻¹, 5.1 s⁻¹ and 27.5 s⁻¹, respectively. Further, the specificity constant (kcat/Km) was found to be 101000 M⁻¹ s⁻¹ in [1]; 17200 M⁻¹ s⁻¹ in [2]; 237000 M⁻¹ s⁻¹ in series [3]; 9600 M⁻¹ s⁻¹ in series [4]; 11000 M⁻¹ s⁻¹ in [5]; 12900 M⁻¹ s⁻¹ in series [6]. The specificity constant (kcat/Km) in series [7] came out at 85200 M⁻¹ s⁻¹; in series [8], 6500 M⁻¹ s⁻¹; in series [9], 12300 M⁻¹ s⁻¹.

B2: Bgl1: β-glucosidase of Y. lipolytica encoded by BGL1 (YALI0F16027g), SEQ ID NO: 4, mainly periplasmic (protein, listed as Yarrowia lipolytica)
chain: MIFSLQLLLTTALAASSPDWYPTPEIGSITSDWADALGESMDILAQLTLPEKVNITTGTGWRGGQCVGNTGAVPRLGIKGLCLQDGPLGVRFADFVNVFPCQNAMAATFDRILVHQRGTAIGRQSRLKGVDVHLGPVVGPLGRHATGGRNWEGFSPDPYLSGKLAFEAILGVQEEGVLATIKHFIGNEQEHYRRAEEWRDGFGFKDLKDAVSSNIEDRALHELYMWPFADAVRANVGSVMCSYNYVNGTQACQNSDLLNGKLKSELGFQGFVMSDWFAQGSGVSNALAGMDMSMPGNDVDELETVFWGEQLTRMVANGTLPEARLDDMVLRILTPLIYFGIDDRTPNFSSFVDTTVGSPHPAAKHSKKVKDVITNYHLDVRDQFAANVALDSARGAVVLLFNDGILPLKNISAIGVFGVGSRLGPNGAVCGENMQCSDGALIEGWGSGTAYPTEYESPYEALHKKASLLEVSVTGTTESWDMRLPLELAGDTDVNIVYVLANSGESTANVDKNLGDRRNVSLWHNGDELINTVASQGQTVVVVTTVGQVDMTAWLNHPNISAVLLTAPAGDYGGKAIADVLFGEVNPSGKLPYTIAANTSDYIPIVTKIPRDGAPQSDFVEGIYLDYKWYDKFERTPLYEFGYGLSYTTYSFSNLHLDVKEISEFLPPRPVPVQVTKPKMTNIDIEDLYVPNDFKMIDGLVYPWILNASAPLADSQTQFPFANGAGHVSDASGGVGGHPWLWSNAVTVTHNTTNCGDVAGRVVSQLYVAFPETLIDSPPVQLRGFDKSKLLNPGESQMTEYNLNWRDLAIWDVELQSWRVQRGEYSVYIGHSSREFELCETFTL
As to B2, in [10], the “fold more active on pNPGlc than Bgl2” value is 5 fold. Besides, the “activity on pNPGlc of purified enzyme” value in series [10] (preliminary characterization, pNPGlc as substrate) came out at 102.8 U/mg. Moreover, the “Relative enzyme activity, Cytoplasm” value in series [11] (fraction: Cytoplasm) worked out at 30.0 ± 0.5%. For the same molecule, the “Relative enzyme activity, Growth medium” value in series [11] (fraction: Growth medium) is 2.3 ± 0.4%. Besides, in series [11] (fraction: Membrane), the “Relative enzyme activity, Membrane” value is reported as 8.1 ± 0.7%. In addition, the “Relative enzyme activity, Periplasm” value in series [11] (fraction: Periplasm) was 60.7 ± 1.0%. In addition, the “Relative enzyme activity, Total” value in series [11] (fraction: Total) turned out to be 100%. In addition, in series [12], the “specific activity on cellobiose” value is reported as 108 units/mg protein. Further, the “KM fold lower than those of β-glucosidases from S. fibuligera and A. niger” value in series [13] is given as “approximately 10 fold”.
